Data on 1 sequence can be found in paper PMC12412624, “Engineered Cas12j‐8 is a Versatile Platform for Multiplexed Genome Modulation in Mammalian Cells”.

Positions count from the first letter of the chain named.

The subject of data set [1] is T1, dCas12j-8 WT D369A;E567A;D658A (bacteriophage (metagenome)).
T1 sequence: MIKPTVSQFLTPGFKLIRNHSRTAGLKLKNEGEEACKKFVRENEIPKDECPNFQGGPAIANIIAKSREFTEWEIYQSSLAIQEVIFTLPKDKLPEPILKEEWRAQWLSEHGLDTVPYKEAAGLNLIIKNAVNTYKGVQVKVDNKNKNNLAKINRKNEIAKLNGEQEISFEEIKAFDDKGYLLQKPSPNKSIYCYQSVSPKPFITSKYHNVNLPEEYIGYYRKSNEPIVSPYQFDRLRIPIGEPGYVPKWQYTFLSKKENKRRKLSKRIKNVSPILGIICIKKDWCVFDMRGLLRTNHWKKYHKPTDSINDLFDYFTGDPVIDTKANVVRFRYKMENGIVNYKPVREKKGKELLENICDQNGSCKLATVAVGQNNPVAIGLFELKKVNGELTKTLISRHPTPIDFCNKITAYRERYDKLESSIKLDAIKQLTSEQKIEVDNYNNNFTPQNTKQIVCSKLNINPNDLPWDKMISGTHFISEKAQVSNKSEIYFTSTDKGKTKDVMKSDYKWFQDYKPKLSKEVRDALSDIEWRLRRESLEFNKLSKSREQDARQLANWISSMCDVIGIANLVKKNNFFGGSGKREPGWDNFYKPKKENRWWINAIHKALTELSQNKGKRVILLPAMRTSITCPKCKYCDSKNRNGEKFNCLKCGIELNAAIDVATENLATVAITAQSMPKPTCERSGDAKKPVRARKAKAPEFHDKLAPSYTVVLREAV
To be noted: HEK293T cells; panel 1c (compare within a panel only); scale: mean GFP / mean GFP of wild type, printed, no background subtraction.

For data set [2], the system named is T2, dCas12j-8 E258R+D495R+D527R E258R;D495R;D527R;D369A;E567A;D658A (bacteriophage (metagenome)).
T2 sequence: T1 sequence with E258R, D495R, D527R
To be noted: HEK293T cells; panel 1e (compare within a panel only); scale: mean GFP / mean GFP of wild type, printed, no background subtraction.

Data set [3] has as its system T3, dCas12j-8 E258R+E157R E258R;E157R;D369A;E567A;D658A (bacteriophage (metagenome)).
T3 sequence: T1 sequence with E157R, E258R
To be noted: HEK293T cells; panel 1d (compare within a panel only); scale: mean GFP / mean GFP of wild type, printed, no background subtraction.

Take “CUUUCAAGACUAAUAGAUUGCUCCUUACGAGGAGACACUCCCUAUCAGUGAUAGAG / TTNACTCCCTATCAGTGATAGAG / CTCTATCACTGATAGGGAGTNAA [TetO]”: the figures for the binding signal in data set [1], in data set [2] and in data set [3] were 1, 3.63 and 2.16, respectively.
